According to IntAct's records for PubMed 17380123:

B1: Zinc finger HIT domain-containing protein 1 (Homo sapiens), O43257 (parent)
chain: MVEKKTSVRSQDPGQRRVLDRAARQRRINRQLEALENDNFQDDPHAGLPQLGKRLPQFDDDADTGKKKKKTRGDHFKLRFRKNFQALLEEQNLSVAEGPNYLTACAGPPSRPQRPFCAVCGFPSPYTCVSCGARYCTVRCLGTHQETRCLKWTV

Variants of: B1
Conditions: with mk14_human MAPK14, Q16539
Chain of mk14_human MAPK14, Q16539 (Q16539 whole entry): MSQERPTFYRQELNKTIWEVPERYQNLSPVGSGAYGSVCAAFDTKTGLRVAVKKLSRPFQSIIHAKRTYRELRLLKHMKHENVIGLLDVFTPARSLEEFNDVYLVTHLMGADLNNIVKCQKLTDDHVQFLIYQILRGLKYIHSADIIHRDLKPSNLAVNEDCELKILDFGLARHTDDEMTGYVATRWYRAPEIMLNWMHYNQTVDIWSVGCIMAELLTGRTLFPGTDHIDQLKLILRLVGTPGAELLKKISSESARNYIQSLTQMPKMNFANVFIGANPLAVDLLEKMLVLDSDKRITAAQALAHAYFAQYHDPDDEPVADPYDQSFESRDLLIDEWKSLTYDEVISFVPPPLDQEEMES

Row | Variant | effect of a mutation on the interaction
1 | MVEKKTSVRSQDPGQRRVLDRAARQRRINRQLEALENDNFQDDPHAGLPQLGKRLPQFDDDADTGKKKKKTRGDHFKLRFRKNFQALLEEQNLSVAEGPNYLAACAGPPSRPQRPFCAVCGFPSPYTCVSCGARYCTVRCLGTHQETRCLKWTV [T103A] | disrupting interaction
